# Measurements published in the DeepSol protein solubility set.
# Experiment: soluble on expression in E. coli; label from the status in PepcDB or PDB records
row,Sequence,soluble on expression in E. coli
1,MTPHVMKRDGCKVPFKSERIKEAILRAAKAAEVDDADYCATVAAVVSEQMQGRNQVDINEIQTAVENQLMSGPYKQLARAYIEYRHDRDIEREKRGRLNQEIRGLVEQTNASLLNENANKDSKVIPTQRDLLAGIVAKHYARQHLLPRDVVQAHERGDIHYHDLDYSPFFPMFNCMLIDLKGMLTQGFKMGNAEIEPPKSISTATAVTAQIIAQVASHIYGGTTINRIDEVLAPFVTASYNKHRKTAEEWNIPDAEGYANSRTIKECYDAFQSLEYEVNTLHTANGQTPFVTFGFGLGTSWESRLIQESILRNRIAGLGKNRKTAVFPKLVFAIRDGLNHKKGDPNYDIKQLALECASKRMYPDILNYDQVVKVTGSFKTPMGCRSFLGVWENENGEQIHDGRNNLGVISLNLPRIALEAKGDEATFWKLLDERLVLARKALMTRIARLEGVKARVAPILYMEGACGVRLNADDDISEIFKNGRASISLGYIGIHETINALFGGEHVYDNEQLRAKGIAIVERLRQAVDQWKEETGYGFSLYSTPSENLCDRFCRLDTAEFGVVPGVTDKGYYTNSFHLDVEKKVNPYDKIDFEAPYPPLANGGFICYGEYPNIQHNLKALEDVWDYSYQHVPYYGTNTPIDECYECGFTGEFECTSKGFTCPKCGNHDASRVSVTRRVCGYLGSPDARPFNAGKQEEVKRRVKHLGNGQIG,not soluble
2,MTPIPFFNHMLITLLTYMNSTAIVSATDKLPYDDHHIVEDVAITLGLAIKTALGDKRGIKRFSHQIIPMDDALVLVSLDISNRGMAFVNLNLKRSEIGGLATENVPHFFQSFAYNSGITLHISQLSGYNTHHIIEASFKALGLALY,soluble
3,MTPLPVTVIGGYLGAGKTTLVNHLLRHAAGRRLAVLVNEFGDLPIDADLIEAEEDGMISIAGGCICCSFGSDLIGALNDLAAMEPRPDHILVESSGVAIPGAIVSTMLLADGIRSDGIVVVVDGETVRQRAQDDYVGDTITRQLSDAEIVVVNKTDLLAHAVQTELMEWLAEAAPGAIAIPAERGRVAPGALLGVLPAPGTGQPAHHSDRLFDSLVLAPEGGQPIERLARDLATGPHGVIRAKGYLRDIEGALWLIQTVGRRWEVTPAQGPHQTGLVCIGFRDRLDRSGLAALAGATV,not soluble
4,MTQAATILRTGRKFDQVLRGAREVFMSDGFEGANVDDIARAAGVSKATLYSYFPDKRLLFVEVAQTECQLMAERILSMIDEDRPVREVLTITATQLVAFLISDFAQQVFRICLAERERFPELARAFYAAGPENGQRQICEYLEKAVTKGELVIADIPMAAEQFSELCKTRLWTRAVFGIQTRFTQAEIDEVALAAVDTFLARYGA,not soluble
5,MTQGAVKTTGKRSRAVSAKKKAILSAALDTFSQFGFHGTRLEQIAELAGVSKTNLLYYFPSKEALYIAVLRQILDIWLAPLKAFREDFAPLAAIKEYIRLKLEVSRDYPQASRLFCMEMLAGAPLLMDELTGDLKALIDEKSALIAGWVKSGKLAPIDPQHLIFMIWASTQHYADFAPQVEAVTGATLRDEVFFNQTVENVQRIIIEGIRPR,soluble
6,MTQISERLLVQAHLDAKQPNPLTAEQEAEYRAAIAAELKAQNAVLVAHYYCDPVIQALAEETGGCVSDSLEMARFGKNHPAETVIVAGVRFMGETAKILTPEKRVLMPTLEATCSLDLGCPVEEFSAFCDQHPERTVVVYANTSAAVKARADWVVTSSCALEIVESLMDNGETIIWGPDQHLGRYIQKQTGADMLLWDGACIVHEEFKSRQLADMKALYPDAAILVHPESPEAVIELADAVGSTSQLIKAAQTLPNKTFIVATDRGIFYKMQQLCPDKEFVEAPTAGNGAACRSCAHCPWMAMNTLERVLDCLRNGTNEIFVDPALVPKAIKPLNRMLDFTQAARLKLSGNALEHHHHHH,not soluble
7,MTQPAIQLTEYQRKWIEDKSRFKISLKARQTGFSFAVSLEVVLDAVERRTTWVLLSRGERQSKELMEKVAMHARAIGVACEELETTFKIDDKDIKQLEVRFPNGSKVIGLPANPDTARGFSGNVVLDEFAFHADSRKIWTALYPTITRGYKIRVISTPNGKSGKFYDLWMDNTGTWSKHFVDIYMAKEQGLDIDIDELRKGCESEDDWLQEFCCEFIDENGALLPYELITPCETDEATFTLPEDFTPQGDLTLGVDIGRKRDLTVMWVLEYTGTLYWTRAIHILEKQKFSVQREQLFTYLSMPRMRRACIDATGIGMQLAEEAVEAFGSKVEAVEFTGPVKQELAITQRRVFEDRAVRIPIDRVLRNDLHSVQKITTAAGNIRYAAERSEHGHADRFWALALALHAAINNPFVPLETKVARHSTMRRAMEGYG,not soluble
8,MTQPLVGKQILIVEDEQVFRSLLDSWFSSLGATTVLAADGVDALELLGGFTPDLMICDIAMPRMNGLKLLEHIRNRGDQTPVLVISATENMADIAKALRLGVEDVLLKPVKDLNRLREMVFACLYPSMFN,soluble
9,MTQTVYVKLSQITQVHKKDVFLSDIADVYCSDKSTASRCKAVKVQTIHSDQEKRYMGSIVDVVQKISENVPEAEVNSVGETDFIIDYQPSKKPMYTWQW,not soluble
10,MTQTYNADAIEVLTGLEPVRRRPGMYTDTTRPNHLGQEVIDNSVDEALAGHAKRVDVILHADQSLEVIDDGRGMPVDIHPEEGVPAVELILCISVVNALSKRVEVNVRRDGQVYNIAFENGEKVQDLQVVGTCGKRNTGTSVHFWPDETFFDSPRFSVSRLTHVLKAKAVLCPGVEITFKDEINNTEQRWCYQD,soluble
11,MTRIIASLSEVSAGYSALFCDLWGCLHDGKRPFAEAVEALRAFRARGGTVLLMTNAPRPKPSVVRQLESIGVPPDCYDEVTSSGDAAQYALVTGAVGRRVYHLGPQKDETFFTELSPDLQKVAATEAPIVRVPLEEAEGIVCTGLFDDLTETPEDYRATLLYAKTQGLKLLCANPDIVVDFGDKRIYCAGAIAEAYDAMGGQSLYFGKPHPPIYDLARRRLEALRPGVPADEILCVGDGIATDIRGAVAEGLDSLFITGGLAASVFGENGE,not soluble
12,MTRLTVFKPRSLVSILMFTTVWAVGSASASTLDLEAQRAQYDKAQRWLDEKNVAQYQRIRKQIDSYPLTPYLDYRAFLIDLGSKPPIAVRNFIDSHKEYPFSARIAAPYLDALARSKKWSALLQFQTQLPNGETYQCHYYNAKLQTGKRNEAFEGAKKLWLNGASIADACDPLFAEWDRVGGLSDDWVLKRALLAFEGRNRNLIVYLQKKLDGKKSQAKAQGMLELFDKPERVLAYSRKASQDPINQKLAELALQKWARSEPQEAQAVFNDVAKAQGWNQEQKGRVARFIAIRLMDTEEAAIAKWRDEVTRTSQDVRLIEARIRLALRENDWRGLSQWIAVLPEQERKTLRWQYWQGRSEIALGKKKEGTERLKALLGQRSFYSVAAAKILQQSVNYPTSTVTLDMKQIKAHKKALARIDELIALDKVPAAKSEWRWLLDRVSQKEKEMLAAYAADSGWYQMTIAATISASLWDNNQLRFPVVHQNLFTLHGRKNGVDPITLMSLARQESALNPDAQSPVGARGLMQIMPDTARYTARKYQLSYSNPDELYQVGKNIEIGSRYLSSLLERYDQNRILAFAAYNAGPSRVDSWLKRSQGKLDAYGFIEAIPFAETRGYVQNILMFETYYRDLMGVQGRFLNEHELNTKY,soluble
13,MTRQEELAAARAALHDLMTGKRVATVQKDGRRVEFTATSVSDLKKYIAELEVQTGMTQRRRGPAGFYV,soluble
14,MTRRDNEERVLHAATDTEQSQVTDLRQNVSATPLTDAEVGRLQLLEERATVQVERQGIGQVQVRKVVRERQEMVPVTLTTEVLEIVVTPAAQGTGAQNVGDTQTAAASAAGTTGNGGVSQVLIDGKPLEAGQTYEIPLTEERVQVMRQVVPLSEVVVRRQAQATTHEETVTLRREELEVLDEQGLARIVDEGAALEHHHHHH,soluble
15,MTRSEKTRHFGNQNYEKLRKICIKKKQPFVDTLFPPTNQSLFLEQRQSSDIVWKRPGELHPDPHLFVEGASPNDVTQGILGNCWFVSACSALTHNFKLLAQVIPDADDQEWSTKHAYAGIFRFRFWRFGKWVEVVIDDLLPTRDGKLLFARSKTPNEFWSALLEKAFAKLYGCYENLVGGHLSDALQDVSGGVAETLHVRKFLKDDPNDTELKLFNDLKTAFDKGALVVAAIAARTKEEIEESLDCGLVKGHAYAVSAVCTIDVTNPNERSFTSFIMGSKRKQNLIRLQNPWGEKEWNGAWSDDSPEWQNVSASQLSTMGVQPANSDSDDGDFWMPWESFVHYFTDISLCQLFNTSVFSFSRSYDEQIVFSEWTTNGKKSGAPDDRAGGCHNFKATFCNNPQYIFDIPSPNCSVMFALIQNDPSEGLKKREPFVTIGMHVMKVENNRQYRVHTAMHPIAISDYASGRSVYLHLQSLPRGRYLLIPTTFAPKEQTLFMLRVYSDEHIHFSPLTKHAPKLGLLKCKSAQSVTRLTIHGVDFNSASTGTHNVYAILKDSRKSFRTKTLSGVKSIQWDEQFLFHKSKNRQQYKIEVWEDRKMARDHLLAQSVIIALIDNENRDTTLQLTDPRGTVIGTVSVTVSAFDDPMYL,not soluble
16,MTSAEMTSPNNNSEHQAIAKMRTMIEGFDDISHGGLPIGRSTLVSGTSGTGKTLFSIQFLYNGIIEFDEPGVFVTFEETPQDIIKNARSFGWDLAKLVDEGKLFILDASPDPEGQEVVGGFDLSALIERINYAIQKYRARRVSIDSVTSVFQQYDASSVVRRELFRLVARLKQIGATTVMTTERIEEYGPIARYGVEEFVSDNVVILRNVLEGERRRRTLEILKLRGTSHMKGEYPFTITDHGINIFPLGAMRLTQRSSNVRVSSGVVRLDEMCGGGFFKDSIILATGATGTGKTLLVSRFVENACANKERAILFAYEESRAQLLRNAYSWGMDFEEMERQNLLKIVCAYPESAGLEDHLQIIKSEINDFKPARIAIDSLSALARGVSNNAFRQFVIGVTGYAKQEEITGLFTNTSDQFMGAHSITDSHIATITDTIILLQYVEIRGEMSRAINVFKMRGSWHDKAIREFMISDKGPDIKDSFRNFERIISGSPTRITVDEKSELSRIVRGVQEKGPES,soluble
17,MTSALATGLATITADGTVLDAWFPAPELTAVDTTGTTVLDGDDIPEHLRLLVGEDADRGVRRQAITTTIADLDAAPIDAYDAYLRLHLLSHRLVKPHGQNLDGIFGLLTNVVWTNHGPCEVKNFDITRAKLQARGPVTVYLVDKFPRMVDYVLPSGVRIGDADRVRLGAHLAEGTTVMHEGFVNFNAGTLGNSMVEGRISAGVVVDDGSDVGGGASIMGTLSGGGKQVISLGKRCLLGANSGCGIPLGDDCVIEAGLYVTAGSKIIVRGAVAEATGLNDGDTTKALELAGANNILFRRNSISGAIEATAWKSQAVELNDALHAN,soluble
18,MTSDIKAILEQVVISPDVPIAEAIAQLDRAGTGSLVVCSADKKLYGLLTDGDVRRALLKAVDMGAPCGDIANRKPVITFVPLLPIEALRLMNHHDINHLPVLDAEGRVVDFLLRRDLVAEDELAARARRRLDSVVIPCSASIAEAIAQLDRAGTGALVLCSEGDRLHGLLTDGDIRRAVLRGISLDAPCQDVASRRPVTVEPSFSAAQALHLMNQHDINHLPVVDDTGRVVDFLLRRDLIADDQLNLSAVVMAGGYGKRLLPLTEQVPKPMLPVGDRPLLERTIDQLRRSGIREVNLTTHYLPDSIVEHFGDGDSFGVKLNYLKEDHPLGTAGGLKLMKKASDPFLVMNGDILTGVPFQEMFAYHRKNGAEITVGVRKYEVQVPFGVVECDDVRITGLKEKPSLTFFINAGIYLLEPSVCDLIPEGERFDMTDLIQKLLDEGRSVVSFPIMEYWLDVGRHEDYQKAQEDVRSGKIQLEHHHHHH,not soluble
19,MTSFNSFMRPLAAAILSALVTLAPVAPQAQEAVRGAVTNLPIPRFVSMKANEGNVRRGPSLTHRIDWVFKRRDMPLQITAEHGHWRKVQDRDGAGGWVHYALLSGVRTVLVEKDMMPLYARPDPASQVAAHFEMGVVARLGTCTQDWCRISAGGYRGWAPKENLWGVGTDEIRELEHHHHHH,not soluble
